Results: publication PMC4113144, “IRF-1 regulates alternative mRNA splicing of carcinoembryonic antigen-related cell adhesion molecule 1 (CEACAM1) in breast epithelial cells generating an immunoreceptor tyrosine-based inhibition motif”

Target: T1, IRF-1 (UniProt P10914 1-325)
T1 sequence: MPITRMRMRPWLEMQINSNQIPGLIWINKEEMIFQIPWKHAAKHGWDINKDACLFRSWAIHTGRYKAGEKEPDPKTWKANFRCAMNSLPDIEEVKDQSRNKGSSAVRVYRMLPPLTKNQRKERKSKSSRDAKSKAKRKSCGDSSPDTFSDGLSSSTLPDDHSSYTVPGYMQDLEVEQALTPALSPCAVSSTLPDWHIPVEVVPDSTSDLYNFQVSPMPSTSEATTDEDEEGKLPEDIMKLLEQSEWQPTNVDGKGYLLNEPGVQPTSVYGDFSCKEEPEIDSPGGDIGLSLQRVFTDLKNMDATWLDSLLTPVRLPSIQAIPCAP
Test: EMSA; 17 pmol IRF-1 : 0.3 pmol DNA lowest ratio; mostly C1 plus C2 complexes; LightShift 1X binding buffer, 5% glycerol, 10 mM MgCl2, 200 ng poly(dI-dC), 0.3 pmol labeled DNA in 10 ul, room temperature 30 min; 6% DNA retardation gel; pH and salt not given
Conditions: protein: commercial; tags: His; label: IRDye 700

B1: CEACAM1 ISRE WT 60-mer (dsDNA)
DNA 1: TGGGAAACCAAAATGTAGACAGAAAGGAAAGAGAAAGTAAGGACAAAGGTAGGAATGAGA
DNA 2: TCTCATTCCTACCTTTGTCCTTACTTTCTCTTTCCTTTCTGTCTACATTTTGGTTTCCCA
- binding result: binds
